Biological target: the molecule itself
Assay: AUC

B1: (His)6-Rv0792c, wild type, GntR family (HutC subfamily) transcription factor from M. tuberculosis (natural protein)
chain: MTSVKLDLDAADLRISRGSVPASTQLAEALKAQIIQQRLPRGGRLPSERELIDRSGLSRVTVRAAVGMLQRQGWLVRRQGLGTFVADPVEQELSCGVRTITEVLLSCGVTPQVDVLSHQTGPAPQRISETLGLVEVLCIRRRIRTGDQPLALVTAYLPPGVGPAVEPLLSGSADTETTYAMWERRLGVRIAQATHEIHAAGASPDVADALGLAVGSPVLVVDRTSYTNDGKPLEVVVFHHRPERYQFSVTLPRTLPGSGAGIIEKRDFA
notes: not shown: His6, N-terminal, kept
stoichiometry N: 2

Reference: paper doi:10.1101/2021.09.17.460839, “Structural and functional characterization of Rv0792c from Mycobacterium tuberculosis: identifying small molecule inhibitors against GntR protein” (bioRxiv, 2021)
